Reference: US10555972 (INNOPEUTICS, dated 2020)

Molecular target: T1, Nuclear receptor-related factor 1 (Nurr1) (mouse, UniProt Q06219 1-598)
T1 construct: Endogenous transcription factor in mouse ventral midbrain lysates (IP) or frozen tissue sections (PLA); not a recombinant construct; also called NR4A2
Assay: reciprocal co-immunoprecipitation and Western blot, midbrain lysates of 10-week-old mice
Description: Interaction between Nurr1 and Foxa2 (in mouse VM tissues at 10 weeks of age) was assessed by an IP. Tissues were lysed in IP lysis buffer (Thermo Scientific, Waltham, Mass.) supplemented with protease inhibitors. Lysates were incubated with an anti-Nurr1 antibody (1:1,000, mouse, R&D Systems) or an anti-Foxa2 antibody (1:1,000, goat, Santa Cruz Biotechnology) at 4° C. for 18-24 hours. The mixtures were shaken with magnetic beads (Life Technologies) at room temperature for 1-2 hours. After washing, immunoprecipitated proteins were eluted in a sample buffer and subjected to a Western blot analysis using an anti-Foxa2 antibody (1:1,000, goat, Cell Signaling Technology) or an anti-Nurr1 antibody (1:500, mouse, R&D Systems).
Close physical interaction of these two proteins was confirmed by an in situ proximity ligation assay (PLA), which allows visualization of protein-protein binding by red fluorescence (554 nm) emanating from two proteins in close proximity (FIG. 2E).

T1 sequence (Q06219 whole entry): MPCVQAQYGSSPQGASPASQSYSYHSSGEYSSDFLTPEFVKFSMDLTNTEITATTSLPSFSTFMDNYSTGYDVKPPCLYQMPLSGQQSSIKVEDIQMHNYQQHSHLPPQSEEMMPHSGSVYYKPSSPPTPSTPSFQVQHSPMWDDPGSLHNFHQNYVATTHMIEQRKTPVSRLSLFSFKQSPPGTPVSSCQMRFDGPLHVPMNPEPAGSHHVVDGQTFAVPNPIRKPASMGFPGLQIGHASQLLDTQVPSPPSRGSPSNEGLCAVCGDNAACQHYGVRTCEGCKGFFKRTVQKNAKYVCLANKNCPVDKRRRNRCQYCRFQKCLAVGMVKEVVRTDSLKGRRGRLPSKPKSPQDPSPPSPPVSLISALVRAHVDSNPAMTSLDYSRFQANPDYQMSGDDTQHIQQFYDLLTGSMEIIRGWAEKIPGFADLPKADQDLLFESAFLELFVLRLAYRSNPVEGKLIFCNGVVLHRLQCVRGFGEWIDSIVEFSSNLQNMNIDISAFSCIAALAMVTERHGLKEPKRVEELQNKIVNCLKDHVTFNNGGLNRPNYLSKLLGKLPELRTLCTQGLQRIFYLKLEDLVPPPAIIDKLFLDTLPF

B1: forkhead box protein A2 (Foxa2) (other, mouse, UniProt P35583 1-459, looked up)
chain: MLGAVKMEGHEPSDWSSYYAEPEGYSSVSNMNAGLGMNGMNTYMSMSAAAMGGGSGNMSAGSMNMSSYVGAGMSPSLAGMSPGAGAMAGMSGSAGAAGVAGMGPHLSPSLSPLGGQAAGAMGGLAPYANMNSMSPMYGQAGLSRARDPKTYRRSYTHAKPPYSYISLITMAIQQSPNKMLTLSEIYQWIMDLFPFYRQNQQRWQNSIRHSLSFNDCFLKVPRSPDKPGKGSFWTLHPDSGNMFENGCYLRRQKRFKCEKQLALKEAAGAASSGGKKTAPGSQASQAQLGEAAGSASETPAGTESPHSSASPCQEHKRGGLSELKGAPASALSPPEPAPSPGQQQQAAAHLLGPPHHPGLPPEAHLKPEHHYAFNHPFSINNLMSSEQQHHHSHHHHQPHKMDLKAYEQVMHYPGGYGSPMPGSLAMGPVTNKAGLDASPLAADTSYYQGVYSRPIMNSS
notes: Endogenous transcription factor in mouse ventral midbrain lysates (IP) or frozen tissue sections (PLA); not a recombinant construct
B1: binds.
